In assay [1] the target is S. frugiperda (FAW) BBMV proteins / receptor(s) (brush border membrane vesicles from wild type, Cry1Fa-sensitive larvae) (Spodoptera frugiperda). Nature of the assay: pull-down competition on FAW BBMVs; ^125I-Cry1Fa remaining bound with 1000 nM unlabeled Cry1Ab competitor.
Assay [2] has the same target. Nature of the assay: pull-down competition on FAW BBMVs; ^125I-Cry1Fa remaining bound with 1000 nM unlabeled Cry1Ca competitor.
Assay [3] shares this target. Nature of the assay: pull-down assay on FAW BBMVs, no competitor, phosphor-imaging densitometry.
Assay [4] concerns the target BBMVs prepared from Cry1Fa-resistant O. nubilalis (rECB) larvae (Ostrinia nubilalis). Kind of assay: pull-down assay on rECB BBMVs, no competitor, phosphor-imaging densitometry.
The target in assay [5] is O. nubilalis (ECB) BBMV proteins (brush border membrane vesicles from wild type, Cry1Fa-sensitive larvae) (Ostrinia nubilalis). Kind of assay: saturation binding of radioligand (0.5-20 nM) to 150 ug/mL ECB BBMV proteins, centrifugation and gamma counting.
For assay [6] the target is unchanged. Nature of the assay: pull-down assay on ECB BBMVs, no competitor, phosphor-imaging densitometry.
The target of assay [7] is BBMVs prepared from Cry1Fa-resistant S. frugiperda (rFAW) larvae (Spodoptera frugiperda). Nature of the assay: pull-down assay on rFAW BBMVs, no competitor, phosphor-imaging densitometry.
The target of assay [8] is O. nubilalis (ECB) BBMV proteins (brush border membrane vesicles from wild type, Cry1Fa-sensitive larvae) (Ostrinia nubilalis). Nature of the assay: pull-down competition on ECB BBMVs; ^125I-Cry1Fa remaining bound with 1000 nM unlabeled Cry1Fa competitor.
For assay [9], the target named is BBMVs prepared from Cry1Fa-resistant O. nubilalis (rECB) larvae (Ostrinia nubilalis). Nature of the assay: pull-down competition on rECB BBMVs; ^125I-Cry1Fa remaining bound with 1000 nM unlabeled Cry1Fa competitor.
Assay [10] concerns the target S. frugiperda (FAW) BBMV proteins / receptor(s) (brush border membrane vesicles from wild type, Cry1Fa-sensitive larvae) (Spodoptera frugiperda). Nature of the assay: pull-down competition on FAW BBMVs; ^125I-Cry1Fa remaining bound with 1000 nM unlabeled Cry1Fa competitor.

Turning to “Cry1Ab core toxin protein (from UniProt P0A370 29-607) (ligand)”, the Relative Amounts of radio-iodinated Cry1Fa Protein Bound in [1] was -4%.

With “Cry1Ca core toxin protein (from UniProt P0A373) (ligand)”, the Relative Amounts of radio-iodinated Cry1Fa Protein Bound in [2] was determined as 50%.

Usually Kd stands for the equilibrium constant for the complex coming apart. Take “^125I radiolabeled fluorescein-Cry1Fa core toxin protein (trypsin-truncated) (from UniProt Q03746 1-603) (ligand)”: the Relative Amounts of radio-iodinated Cry1Fa Protein Bound in assay [3] was 100%; in assay [4], 64%; in assay [6], 100%; in [7], 10%. Moreover, in [5], the Bmax came out at 37 fmol/mg. In assay [5], the Kd stood at 11 nM.

In the case of “non-radioactive (unlabeled) Cry1Fa core toxin protein (trypsin-truncated) (from UniProt Q03746 1-603) (ligand)”, the Relative Amounts of radio-iodinated Cry1Fa Protein Bound was 31% in assay [8], 51% in [9] and 0% in assay [10].
